Reference: the nanobody polyreactivity screen of Harvey et al. (2022)

Assay: yeast display, Sf9 membrane polyspecificity reagent, FACS + sequencing; frameworks hold sequencing errors
Procedure, shortened: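 Nanobodies came from a synthetic yeast display library in Saccharomyces cerevisiae BJ5465, induced with galactose for 36–48 hours and stained for 1 hour at 4 °C with 10% biotinylated, detergent-solubilized Sf9 membrane reagent. Cells were enriched on streptavidin microbeads and then FACS-sorted, with low and high (top ~1%) gates set on anti-HA fluorescence for expression and streptavidin fluorescence for reagent binding. Each polyreactivity label reflects the gate a clone came from. Genes were amplified by colony PCR, sequenced by MiSeq 2 × 250 and filtered by CDR length.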

In the case of “QVQLVESWGGLFQAGGSLRLSCAASGSTFIYNAMGWYRKAPGKERELVAAITWNYGSTYYADSVKGRFTISRDNANNTVYLQMNSLKPEDTAVYYCAADFTIPYWDANFDYWGQGTQVTVSW”, the “polyreactivity (PSR sort gate)” value is reported as “low polyreactivity”.
With “QVQLVESGGGLVQAGGSLRLSCAASGRTFLPYAMGWYRQAPGKERELVAAITSGGSTSYADSVKGRFTISRDNAKNTVYLQMNSLKPEDSAVYYCAKGYYRFRRFYYGGYYWGQGTQVTVSS” the “polyreactivity (PSR sort gate)” value was “low polyreactivity”.
In the case of “QVQLVESGGGLVQAGGSLRLSCDASGITSHWYVMGWYRQAPGKERELVAAINSSGGRTSYADSVKGRFTISRDNAKNTVYLQMNSLKPEYTAVYYCAAGYTHSYFLGATGKVDYWGQGTQVTVSS”, the “polyreactivity (PSR sort gate)” value is reported as “low polyreactivity”.
With “QVQLVESGGGLVQAGGSLRLSCAASGFIFNSYAMGWYRPAPGKERELVAVISWSGGTTYYADSVKGRFTISRDNAKNTVFLQMNSLKPEDTAVYYCAASSYRSQYGYWGQGTQVTVSS” the “polyreactivity (PSR sort gate)” value was “high polyreactivity”.
For “QVQLVESGGGLVQAGGSLRLSCAASGSIFPYYAMGWYRQAPGKERELVARITWRSTSTYADSVKGRFTISRDNAKNTVYLQMNSLKPEDTAVYYCAVRLLSTYIIEYDHWGQGTQVTVSS”, the “polyreactivity (PSR sort gate)” value was “low polyreactivity”.
For “QVQLVESGGGLVQAGGSLRLSCAASGRIFGYYVMGWYRQAPGKERELVAAIRSSADSTYYADSVKGRFTISRDNAKNTVYFQMNSLKPEDTAVYYCAAQSPAYYTKSYWGQGTQVTVSS”, the “polyreactivity (PSR sort gate)” value was “low polyreactivity”.
For “QVQLVESGGGLVQAGGSLRLSCAASGITFYWYAMGWYRQAPGKDRELVASITGNGGGTSYADSVKGRFTIARDNAKNTVYLQMNSLKPEDTAVYYCNTSVGGKEYDSWGQGTQVTVTS”, the “polyreactivity (PSR sort gate)” value was “low polyreactivity”.
In the case of “QVQLVESGGGLVQAGGSLRLSCAASGITFRHYDMGWYRQAPGKERELVAAITSRGGSTYYADSVKGRFTISRDNAKNTVYLQMNSLKPQDTAVYYCNKRLYYQRWPAAAREYWGQGTQVTVSS”, the “polyreactivity (PSR sort gate)” value is reported as “high polyreactivity”.
In the case of “QVQLVESGGGLVQAGGSLRLSCAASGSIFGPYAMGWYRQAPGKDRELVAAISLGGGSTSYADSVKGRFTISRDNAKNTVYIQMNSLKPEDTAVYYCNAEYYSGPYGYNGFDYWGQGTQVTVSS”, the “polyreactivity (PSR sort gate)” value is reported as “low polyreactivity”.
With “QDQHVESGGGLVQAGGSLRLSCAASGSIFGYYARGWYRQAPGTETELVAAISKSGTRTYYADSVKGRFTISRDNAKNTVYVQMNSLKPEETAVYYCAARYYSRTTAMDYWGQGTQVTVSS” the “polyreactivity (PSR sort gate)” value was “high polyreactivity”.
In the case of “QVQLVESGGGLVQAGGSLRLSCAASGSILVGNPMGWYRQAPGTERELVAAISKSGSSTHYADSVKGRFTISRDNAKNTFYLQMNSLKPEDTAVYYCNAVGRVYRAKYDYWGQGTQVTVSS”, the “polyreactivity (PSR sort gate)” value is reported as “high polyreactivity”.
With “QDQLVESGGGLVQAGGSLRLSCAASGFTFACYTMGWYRQAPGKERELVAGIDWSGGSTYYADSVKGRFTISRDNEKNTVYLEMNSLKPEDTAVYYCNAAVLYYVYPGYDYWGQGTQVTVSS” the “polyreactivity (PSR sort gate)” value was “high polyreactivity”.
In the case of “QVQLVESGGGLVQAGGSLRLSCAASGRTFYYYAMGWYRQAPGKERELVAAITSGGSTKYADSVKGRFTISRDNAKNTVYLQMNSLKPEDTAVYYCAKRYFSSSRYYYWGQGTQVTVSS”, the “polyreactivity (PSR sort gate)” value is reported as “high polyreactivity”.
With “QVQLVESGGGLVQAGGSLRLSCAASGRTFYSYTMGWYRQAPGKERELVAAINRGGSTYYADSVKGRFTISRDNAKNTVYLQMNSLKPEDTAVYYCNVDWKVYGAPDYRIAWKYDYWGQGTQVTVSS” the “polyreactivity (PSR sort gate)” value was “low polyreactivity”.
In the case of “QVQLVESGGGLVQAGGSLRLSCAASGRTLLKYAMGWYRQATGKEREFVAAITRSGSSTYYADSVKGRFTISRDNAKNTVYLQMNSLKPEDTAVYYCAARLYRVTLDYWGQGTQVTVSS”, the “polyreactivity (PSR sort gate)” value is reported as “low polyreactivity”.
For “QVQLVESGRGLDQAGGSLRLNCAASGSIFVRYAMGLNRQAPGKERELVAGITNSGGSTYYADSVKGRFTISRDNAMNTVYLQMNSLKPEDTAVYYCAADAGGWWYKYYYWGQGTQVTVSS”, the “polyreactivity (PSR sort gate)” value was “high polyreactivity”.
For “QVQLVESGGGLVQAGGSLRLSCAASGRTCGRYAMGWYRQAPGKERELVADISWNGGRTYYADSVKGRFTISRDNAKNTVYLKMNSLKPEDSAVYYCAKRFSPRYYYWGQGTQVTVSS”, the “polyreactivity (PSR sort gate)” value was “high polyreactivity”.
In the case of “QVQLVESGGGLVQAGGSLRLSCAASGSTFGIYAMGWYRQAPGKERELVATITGRGGRTYYADSVKGRFTISRDNAKNTVYLQMNSLKQEDTAVYYCNAAYRGYYRYDYWGQGTQVTVSS”, the “polyreactivity (PSR sort gate)” value is reported as “high polyreactivity”.
In the case of “QVQLVETGGGLVQAGGSLRLSCAATGFTFGYYTMGWYRQAPGKEGELVAAITWRGGSTYYADSVKGRFTISRDNAKNTVYLQMNSLKPEDTAVYYCNAVVLGYYPSGVYPDDEEHDYWGQGTQVTVSS”, the “polyreactivity (PSR sort gate)” value is reported as “high polyreactivity”.
For “QVQLVESGGGLVQAGGSLRLSCAASGRIFSGNTMGWYRQAPGKERELVAAISKSGGRTYYADSVKGRFTISRDNAKNTVYLQMNSLKPEDTAVYYCNADYRSHYLYDYWGQGTQVTVSS”, the “polyreactivity (PSR sort gate)” value was “low polyreactivity”.
In the case of “QVQLVESGGGLVQAGGSLRLSCPASGRIFGVYAMGWYRQAPGKESELVAAIRYRGGSTYYADSVKGRFTISRDNAKNSVYLQMNSLIPEDTAVYYCAAEVWGVGYYAPYGYWGQGTQVTVSS”, the “polyreactivity (PSR sort gate)” value is reported as “high polyreactivity”.
In the case of “QVQLVESGGGLVQAGGSLRLSCAASGRIYWWYAMGGSRQEPGKERELVAGISWSGGSTYYADSVKGRFTISRDNAKNTVYLQMNSLKPEDSAVYYCNAQYASGRSYFFYWHRFDYGGQGTQVTVSS”, the “polyreactivity (PSR sort gate)” value is reported as “high polyreactivity”.
In the case of “QVQLVESGGGLVQAGGSLRLSCAASGSTFYDYDMGWYSQAPGKESELVAAITSGGSTKYADSVKGRFTISRDNAKNTVYLQMNSLKPEDTAVYYCNADSQRPAYWDGYWGQGTKVTVSS”, the “polyreactivity (PSR sort gate)” value is reported as “low polyreactivity”.
In the case of “QVQLVESGGGLVQAGGSLRLSCAASGSIFFRNAMGWYRQAPGKERELVAAITSGGGTYYADSVKGRLTISRDNAKNTVYLQMNSLKPEDTAVYYCAVVRGSRAIKHYYWGQGTQVTVSS”, the “polyreactivity (PSR sort gate)” value is reported as “high polyreactivity”.
For “QVQLVESGGGLVQAGGSLRLSCAASGSTFPYNAMGWYIQAPGKERELVAAISSRGGRTYYADSVKGRFSISRDNAKYTVYLQMNSLKPEDTAVYYCAARVVSRKDMNYWGQGTQVTVSS”, the “polyreactivity (PSR sort gate)” value was “high polyreactivity”.
With “QVQLVESGGGVVQAGGSLRLSFAASGSTFPGNAMGWYRQAPGKERELVASISGGGDSTYYADSVKGRFTISRDNAKNTVYLQMNSLKPEDTADYYCAARSTRGHYTAYDYWGQGTQVTVSS” the “polyreactivity (PSR sort gate)” value was “low polyreactivity”.
In the case of “QVQLVESGGGLVQAGGSLRLSCAASGSTFKRYAMGWYRQAPGKERELVAAISSGGTTNYADSVKGRFTISRDNAKNTVYLQMNSLKPEDTAVYYCNRKFRYSSHTNYYYWGQGTQVTVSS”, the “polyreactivity (PSR sort gate)” value is reported as “high polyreactivity”.
With “QVQLVESGGGIVQAGGSLRLSCAASGRTFDWYAMGWSRQAPGKERELVAAIDSIGGDTYYADSVKGRFTISRDNAKNTVYLQMNSLKPEDTAVYYCAALPWYDWEYEYWGQGTQVTVSS” the “polyreactivity (PSR sort gate)” value was “high polyreactivity”.
With “QVQLVESGGGLVQAGGSLRLSCASSGFTFWTYDMGWYRQAPGKERELVAAIDSGGSTYYADSVKGRFTISRDNAKNTVYLQMNSLKPEDTAVYYCNAGPSVTSGYDYDYWGQGTQVTVSS” the “polyreactivity (PSR sort gate)” value was “low polyreactivity”.
For “QVQLVESGGGLVQAGGSLRLSCAASGFIFHLYAMGWYRQAPGKERDLVAAIRISDGSTYYADSVKGRFTISRDNAKNSVYLQMNRLKPEDTAVYYCNVVYRYGGYNYWGQGTQVTVSS”, the “polyreactivity (PSR sort gate)” value was “high polyreactivity”.
In the case of “QVQLVESGGGLVQAGGSLRLSCAASGSIFESYAMGWYRQAPGKERELVAAITKRGGSTYYADSVKGRFTISRDNAKYTVYLQMNSLKPEDTAVYYCNARWPGIGPIYDYWGQGSQVTVSS”, the “polyreactivity (PSR sort gate)” value is reported as “low polyreactivity”.
With “QVQLLESGGGLVQAGGSLGCAASGNISTRSEMGWYRQAPGKEREFVATINSGGITNYADSVKGRFTISRDNENNTVYLGMNSLKPEDTAVYYRAVYVYFSDPYDYWGQGTQVTVSS” the “polyreactivity (PSR sort gate)” value was “low polyreactivity”.
With “QVQLVESGGGLVQAGGSLRLSCAASGFIFADNAMGWYRQAPGKERELVAGITSGGITNYADSVKGRFTISRDNAKNTVYLQMNSLKPEDTAVYYCAVYYRRWFSRYDYWGQGTQVTVSS” the “polyreactivity (PSR sort gate)” value was “low polyreactivity”.
For “QVQLVESGGGLVQAGGSLRLTCAASGFIFQNYAMGWYIQAPGKERELVSAIDFTDGSKYYADSVKGRYTISRDNAKNSVYLQMNSLKPEDTSVDYCNALDYLYGGIYLEEDYWGQGTQVTVSS”, the “polyreactivity (PSR sort gate)” value was “low polyreactivity”.
In the case of “QVQLVESGGGLVQEGGCLRLSCAASGSIFQGYAMGWYRQAPGKERELVAAITTDGDSTYYADSVKGRFTISRDNAKNTDYLEMNSLKPVDTAVYYCAADQDGRWEGSSEQGDSWGQGTQVTVSS”, the “polyreactivity (PSR sort gate)” value is reported as “low polyreactivity”.
In the case of “QVLLVESGGGLVQAGGSLRLSCAASGSTFWRNAMGWYRQATGKERELVAVISGSGSRTFYADSVKGRFTISRDNAKNTVNLQMNSLKPEDTAVYYCAADARQYQGFDYWGQGTQVTVSS”, the “polyreactivity (PSR sort gate)” value is reported as “high polyreactivity”.
For “QVQLVESGGGLVQAGGSLRLSCAASGSTYGGYAMGWYRQAPGKETELVAAISRSGSSTYYADSVKGRFTISRDNAKNTVYLQMNSLKPEDTAVYYCAKRRPALRWIYYYWGQGTQVTVSS”, the “polyreactivity (PSR sort gate)” value was “high polyreactivity”.
For “QVQLVESGGGLVQAGGSLRLSCAASGNTFHYYTMGWYRQAPGKERELVAAITRSAGRTYYADSVKGRFTISRDNAKTTVYLQMNSLKPEDTAVYYCATERERTMGYWGQGTQVTVSS”, the “polyreactivity (PSR sort gate)” value was “high polyreactivity”.
For “QVQLVESGGGLVQAGGSLRLSCAASGRIIGYNAMGWYRQAPGKERELVAAIDYTGGSTYYADSVKGRFTISLDNAKNTVYLQMNSLKPEDTAVYYCAKDRTTPWEEDDYWGQGTQVTVSS”, the “polyreactivity (PSR sort gate)” value was “low polyreactivity”.
For “QVQLVESGGGLVQAGGSLRLSCAASGSIFPDYGMGWYRQAPGKEREFVAAIDWSGTSTYYADSVKGRFTISRDNAKNTVYLQMNSLKPEDTAVYYCAARWDKSPFKLYDSWGQGTQVTVSS”, the “polyreactivity (PSR sort gate)” value was “low polyreactivity”.
With “QVQLVESGGGLVQAGGSLRLSCAASGSIFYYYAMGRYRQAPGKERELVAAISSGGDTHYADSVKGRFTISRDNAKNTVYLQMNSLKPEDTAVFYCAAQRRYHQDTTIGPGNYYYWGQGTQVTVSS” the “polyreactivity (PSR sort gate)” value was “low polyreactivity”.
For “QVQLVESGGGLVQAGGSLRLSCAASGFTFPYYAMGLYRQAPGKERELVATISSGSSTNYADSVKGRFTISRDNAKNTVYLQMNSLKPEDTAVYYCAAVRSGYSGTDGQYSKYGYWGQGTQVTVSS”, the “polyreactivity (PSR sort gate)” value was “high polyreactivity”.
In the case of “QVQLVESGGGLVQAGGSLRISCAASGFILGYKDMGWYRQAPGKERELVAAISSSGGSTYYADSVKGRFTISRDNSKNTVYLQMNILKPEDTAVYYCGLPYQTSYGEYDYWGQGTQVTVSS”, the “polyreactivity (PSR sort gate)” value is reported as “low polyreactivity”.
